# B1: AatA (Rhizobium leguminosarum bv. phaseoli) (protein)
# chain: MAFLADALSRVKPSATIAVSQKARELKAKGRDVIGLGAGEPDFDTPDNIKKAAIDAINRGETKYTPVSGIPELRKAIAAKFKRENGLDYSWEQTIVGTGGKQILFNAFMATLNPGDEVSIPAPYWVSYPEMVALCGGTRFFVSATQEHNFKLQAADLEKAITPKTKWFIFNSPSNPTGAAYTHDELKALTDVLMKNPQVWVLTDDMYEHLTYGDFKFVTPVEVEPQLYDRTLTMNGVSKAYAMTGWRIGYAAGPIQLIKAMDMIQGQQTSGATSIAQWAAVEALNGTQDFIPENKKIFEGRRDLVVSMLNQAKGIVCPVPEGAFYVYPSCKGLIGKTAPSGKVIETDEDFVSELLESEGVAVVHGSAFGLGPNFRISYATSEEQLEEACRRIQRFCGACK
# notes: recombinant from A34 gDNA in pET101/D-TOPO (pRU1152; vector with V5-tag and 6xHis), E. coli BL21 Star (DE3), His-Trap purified (histidine elution); expected homodimer; glycine at position 266
# Key:
# Experiment in all cases: purified protein
# purified protein [1] = substrate: N[C@@H](CCC(=O)O)C(=O)O; type: biochemical, Rhizobium leguminosarum; conditions: GOT reaction, co-substrate oxaloacetate, 0.05 mM PLP, 100 mM NH4Cl, 100 mM phosphate pH 7.5, 30 °C
# purified protein [2] = substrate: O=C(O)CCC(=O)C(=O)O; type: biochemical, Rhizobium leguminosarum; conditions: AKT reaction, co-substrate aspartate, 0.05 mM PLP, 100 mM phosphate pH 7.5, 30 °C
# purified protein [3] = substrate: CC(=O)C(=O)O; type: biochemical, Rhizobium leguminosarum; conditions: APT reaction, co-substrate aspartate, 0.05 mM PLP, 100 mM phosphate pH 7.5, 30 °C
# purified protein [4] = substrate: N[C@@H](CC(=O)O)C(=O)O; conditions: AKT reaction, co-substrate α-ketoglutarate, 0.05 mM PLP, 100 mM phosphate pH 7.5, 30 °C
# purified protein [5] = substrate: O=C(O)CC(=O)C(=O)O; conditions: GOT reaction, co-substrate glutamate, 0.05 mM PLP, 100 mM NH4Cl, 100 mM phosphate pH 7.5, 30 °C
protein,measurement,setting,value
B1,Km,purified protein [1],4430 ± 520 µM
same,kcat,purified protein [1],163.71 ± 3.64 s⁻¹
same,Km,purified protein [2],320 ± 20 µM
same,kcat,purified protein [2],130.97 ± 2.18 s⁻¹
same,Km,purified protein [3],17000 ± 2000 µM
same,kcat,purified protein [3],98.96 ± 4.37 s⁻¹
same,Km,purified protein [4],1740 ± 320 µM
same,kcat,purified protein [4],125.88 ± 5.09 s⁻¹
same,Km,purified protein [5],180 ± 30 µM
same,kcat,purified protein [5],168.08 ± 6.55 s⁻¹

# Reference: article PMC11286295, “Aspartate aminotransferase of Rhizobium leguminosarum has extended substrate specificity and metabolizes aspartate to enable N2 fixation in pea nodules” (Microbiology, 2024)
